For the assay, the target named is OB-R (leptin receptor) expressed by rabbit endometrial cells (rEEC and rESC) (rabbit). In words: competition with 125I-human leptin for OB-R in rabbit endometrial cell lysates (rEEC and rESC), PEG precipitation.

This passage reports Ki results from US20050250690A1.

A word on the Ki: it is the dissociation constant of the complex between target and ligand, obtained from inhibition or displacement. The low end stands for a stronger hold on the target, the high end for a looser hold on the target.

B1: LPA-2 (leptin peptide antagonist 2; residues 70-95 of helix III of the human leptin molecule) (peptide)
peptide: SRNVIQISNDLENLRDLLHVLAFSKS
B1: the inhibition constant Ki came to 0.06 nM.
